Data published in doi:10.1101/2020.07.24.212647 (bioRxiv, 2020).
Like-named read-outs stand apart in the source and are kept apart here.

Legend:
[1] = molecular target: Corynebacterium mustelae E2p catalytic domain (CmE2p_CD) (Corynebacterium mustelae); test: crystal structure
crystal structure = molecular target: the molecule itself; test: crystal structure
AUC [2] = molecular target: the molecule itself; test: AUC
AUC [3] = molecular target: the molecule itself; test: AUC; remark: listed apart in the source

Corynebacterium mustelae E2p catalytic domain (CmE2p_CD) (domain or fragment)
stoichiometry N [1]: 3

B1: C. glutamicum E2p catalytic core and peripheral subunit binding domain (CgE2p-ΔLBDs) (domain or fragment)
chain: YVTPLVRKLAEKHGVDLNTVTGTGIGGRIRKQDVLAAANGEAAPAEAAAPVSAWSTKSVDPEKAKLRGTTQKVNRIREITAMKTVEALQISAQLTQLHEVDMTRVAELRKKNKPAFIEKHGVNLTYLPFFVKAVVEALVSHPNVNASFNAKTKEMTYHSSVNLSIAVDTPAGLLTPVIHDAQDLSIPEIAKAIVDLADRSRNNKLKPNDLSGGTFTITNIGSEGALSDTPILVPPQAGILGTGAIVKRPVVITEDGIDSIAIRQMVFLPLTYDHQVVDGADAGRFLTTIKDRLETANFEGDLQL
binding result (crystal structure): binds

B2: C. glutamicum E2p, full-length (CgE2p_FL) (enzyme)
chain: MAFSVEMPELGESVTEGTITQWLKSVGDTVEVDEPLLEVSTDKVDTEIPSPVAGVILEIKAEEDDTVDVGGVIAIIGDADETPANEAPADEAPAPAEEEEPVKEEPKKEAAPEAPAATGAATDVEMPELGESVTEGTITQWLKAVGDTVEVDEPLLEVSTDKVDTEIPSPVAGTIVEILADEDDTVDVGAVIARIGDANAAAAPAEEEAAPAEEEEPVKEEPKKEAAPEAPAATGAATDVEMPELGESVTEGTITQWLKAVGDTVEVDEPLLEVSTDKVDTEIPSPVAGTIVEILADEDDTVDVGAVIARIGDANAAAAPAEEEAAPAEEEEPVKEEPKKEEPKKEEPKKEAATTPAAASATVSASGDNVPYVTPLVRKLAEKHGVDLNTVTGTGIGGRIRKQDVLAAANGEAAPAEAAAPVSAWSTKSVDPEKAKLRGTTQKVNRIREITAMKTVEALQISAQLTQLHEVDMTRVAELRKKNKPAFIEKHGVNLTYLPFFVKAVVEALVSHPNVNASFNAKTKEMTYHSSVNLSIAVDTPAGLLTPVIHDAQDLSIPEIAKAIVDLADRSRNNKLKPNDLSGGTFTITNIGSEGALSDTPILVPPQAGILGTGAIVKRPVVITEDGIDSIAIRQMVFLPLTYDHQVVDGADAGRFLTTIKDRLETANFEGDLQL
stoichiometry N (AUC [2]): 3

B3: M. tuberculosis E2b, full-length (MtE2b_FL) (enzyme)
chain: MSGEDSIRSFPVPDLGEGLQEVTVTCWSVAVGDDVEINQTLCSVETAKAEVEIPSPYAGRIVELGGAEGDVLKVGAELVRIDTGPTAVAQPNGEGAVPTLVGYGADTAIETSRRTSRPLAAPVVRKLAKELAVDLAALQRGSGAGGVITRADVLAAARGGVGAGPDVRPVHGVHARMAEKMTLSHKEIPTAKASVEVICAELLRLRDRFVSAAPEITPFALTLRLLVIALKHNVILNSTWVDSGEGPQVHVHRGVHLGFGAATERGLLVPVVTDAQDKNTRELASRVAELITGAREGTLTPAELRGSTFTVSNFGALGVDDGVPVINHPEAAILGLGAIKPRPVVVGGEVVARPTMTLTCVFDHRVVDGAQVAQFMCELRDLIESPETALLDL
stoichiometry N (AUC [3]): 24

B4: C. glutamicum E2p catalytic domain (CgE2p_CD) (domain or fragment)
chain: LRGTTQKVNRIREITAMKTVEALQISAQLTQLHEVDMTRVAELRKKNKPAFIEKHGVNLTYLPFFVKAVVEALVSHPNVNASFNAKTKEMTYHSSVNLSIAVDTPAGLLTPVIHDAQDLSIPEIAKAIVDLADRSRNNKLKPNDLSGGTFTITNIGSEGALSDTPILVPPQAGILGTGAIVKRPVVITEDGIDSIAIRQMVFLPLTYDHQVVDGADAGRFLTTIKDRLETANFEGDLQL
stoichiometry N (AUC [2]): 3
